Source: patent US20210388087A1 (Chugai, published 2021)
Substitutions are numbered along the chain they refer to. Names may count otherwise.

T1: Human CD3eg linker (human)
T1 construct: Single chain: epsilon and gamma subunits of human CD3 joined by a 29-mer linker, Flag-tag at the C-terminus; also called recombinant human CD3
T1 chain: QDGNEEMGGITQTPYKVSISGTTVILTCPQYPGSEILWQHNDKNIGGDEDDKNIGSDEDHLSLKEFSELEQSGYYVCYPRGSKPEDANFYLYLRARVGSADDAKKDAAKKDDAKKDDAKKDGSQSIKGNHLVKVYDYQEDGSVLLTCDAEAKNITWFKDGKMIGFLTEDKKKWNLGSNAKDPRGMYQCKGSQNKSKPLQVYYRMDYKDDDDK

B1: H183/L072 VH H93P (antibody, name in Kabat numbering, V domains shown)
VH: QVQLVESGGGLVQPGRSLRLSCAASGFTFSNAWMHWVRQAPGKGLEWVAQIKDKGNAYAAYYAPSVKGRFTISRDDSKNSIYLQMNSLKTEDTAVYYCPYVHYASASTVLPAFGVDAWGQGTTVTVSS
VL: DIVMTQSPLSLPVTPGEPASISCQASQELVHMNRNTYLHWYQQKPGQAPRLLIYKVSNRFPGVPDRFSGSGSGTDFTLKISRVEAEDVGVYYCAQGTSVPFTFGQGTKLEIK
B2: H183/L072 VH K52bA (antibody, name in Kabat numbering, V domains shown)
VH: B1 VH with K54A, P99H
VL: B1 VL
B3: H183/L072 VH I51M (antibody, name in Kabat numbering, V domains shown)
VH: B1 VH with I51M, P99H
VL: B1 VL
B4: H183/L072 VH K52G (antibody, name in Kabat numbering, V domains shown)
VH: B1 VH with K52G, P99H
VL: B1 VL
B5: H183/L072 VH K52N (antibody, name in Kabat numbering, V domains shown)
VH: B1 VH with K52N, P99H
VL: B1 VL
B6: H183/L072 VH H96L (antibody, name in Kabat numbering, V domains shown)
VH: B1 VH with P99H, H102L
VL: B1 VL
B7: H183/L072 VH I51R (antibody, name in Kabat numbering, V domains shown)
VH: B1 VH with I51R, P99H
VL: B1 VL
B8: H183/L072 VH K52A (antibody, name in Kabat numbering, V domains shown)
VH: B1 VH with K52A, P99H
VL: B1 VL
B9: H183/L072 VH I51S (antibody, name in Kabat numbering, V domains shown)
VH: B1 VH with I51S, P99H
VL: B1 VL
B10: H183/L072 VH I51D (antibody, name in Kabat numbering, V domains shown)
VH: B1 VH with I51D, P99H
VL: B1 VL
B11: H183/L072 VH I51N (antibody, name in Kabat numbering, V domains shown)
VH: B1 VH with I51N, P99H
VL: B1 VL
B12: H183/L072 VH H96M (antibody, name in Kabat numbering, V domains shown)
VH: B1 VH with P99H, H102M
VL: B1 VL
B13: H183/L072 VH K52bE (antibody, name in Kabat numbering, V domains shown)
VH: B1 VH with K54E, P99H
VL: B1 VL
B14: H183/L072 VH I51V (antibody, name in Kabat numbering, V domains shown)
VH: B1 VH with I51V, P99H
VL: B1 VL
B15: H183/L072 VH I51H (antibody, name in Kabat numbering, V domains shown)
VH: B1 VH with I51H, P99H
VL: B1 VL
B16: H183/L072 VH K52bD (antibody, name in Kabat numbering, V domains shown)
VH: B1 VH with K54D, P99H
VL: B1 VL
B17: H183/L072 VH I51Q (antibody, name in Kabat numbering, V domains shown)
VH: B1 VH with I51Q, P99H
VL: B1 VL
B18: H183/L072 VH I51P (antibody, name in Kabat numbering, V domains shown)
VH: B1 VH with I51P, P99H
VL: B1 VL
B19: H183/L072 VH H96I (antibody, name in Kabat numbering, V domains shown)
VH: B1 VH with P99H, H102I
VL: B1 VL
B20: H183/L072 VH K52V (antibody, name in Kabat numbering, V domains shown)
VH: B1 VH with K52V, P99H
VL: B1 VL
B21: H183/L072 VH K52Q (antibody, name in Kabat numbering, V domains shown)
VH: B1 VH with K52Q, P99H
VL: B1 VL
B22: H183/L072 VH I51A (antibody, name in Kabat numbering, V domains shown)
VH: B1 VH with I51A, P99H
VL: B1 VL
B23: H183/L072 VH K52D (antibody, name in Kabat numbering, V domains shown)
VH: B1 VH with K52D, P99H
VL: B1 VL
B24: H183/L072 VH I51G (antibody, name in Kabat numbering, V domains shown)
VH: B1 VH with I51G, P99H
VL: B1 VL
B25: H183/L072 VH K52R (antibody, name in Kabat numbering, V domains shown)
VH: B1 VH with K52R, P99H
VL: B1 VL
B26: H183/L072 VH K52P (antibody, name in Kabat numbering, V domains shown)
VH: B1 VH with K52P, P99H
VL: B1 VL
B27: H183/L072 VH K52Y (antibody, name in Kabat numbering, V domains shown)
VH: B1 VH with K52Y, P99H
VL: B1 VL
B28: H183/L072 VH K52E (antibody, name in Kabat numbering, V domains shown)
VH: B1 VH with K52E, P99H
VL: B1 VL
B29: H183/L072 VH I51K (antibody, name in Kabat numbering, V domains shown)
VH: B1 VH with I51K, P99H
VL: B1 VL
B30: H183/L072 VH K52W (antibody, name in Kabat numbering, V domains shown)
VH: B1 VH with K52W, P99H
VL: B1 VL
B31: H183/L072 VH K52T (antibody, name in Kabat numbering, V domains shown)
VH: B1 VH with K52T, P99H
VL: B1 VL
B32: H183/L072 VH I51L (antibody, name in Kabat numbering, V domains shown)
VH: B1 VH with I51L, P99H
VL: B1 VL
B33: H183/L072 VH K52S (antibody, name in Kabat numbering, V domains shown)
VH: B1 VH with K52S, P99H
VL: B1 VL
B34: H183/L072 VH I51E (antibody, name in Kabat numbering, V domains shown)
VH: B1 VH with I51E, P99H
VL: B1 VL
B35: H183/L072 VH K52F (antibody, name in Kabat numbering, V domains shown)
VH: B1 VH with K52F, P99H
VL: B1 VL
B36: H183/L072 VH H96A (antibody, name in Kabat numbering, V domains shown)
VH: B1 VH with P99H, H102A
VL: B1 VL
B37: H183/L072 VH I51F (antibody, name in Kabat numbering, V domains shown)
VH: B1 VH with I51F, P99H
VL: B1 VL
B38: H183/L072 VH K52H (antibody, name in Kabat numbering, V domains shown)
VH: B1 VH with K52H, P99H
VL: B1 VL
B39: H183/L072 VH I51T (antibody, name in Kabat numbering, V domains shown)
VH: B1 VH with I51T, P99H
VL: B1 VL
B40: H183/L072 VH K52L (antibody, name in Kabat numbering, V domains shown)
VH: B1 VH with K52L, P99H
VL: B1 VL
B41: H183/L072 VH K52I (antibody, name in Kabat numbering, V domains shown)
VH: B1 VH with K52I, P99H
VL: B1 VL
B42: H183/L072 VH I51Y (antibody, name in Kabat numbering, V domains shown)
VH: B1 VH with I51Y, P99H
VL: B1 VL
B43: H183/L072 VH I51W (antibody, name in Kabat numbering, V domains shown)
VH: B1 VH with I51W, P99H
VL: B1 VL
B44: H183/L072 VH H96P (antibody, name in Kabat numbering, V domains shown)
VH: B1 VH with P99H, H102P
VL: B1 VL
B45: H183/L072 VH K52M (antibody, name in Kabat numbering, V domains shown)
VH: B1 VH with K52M, P99H
VL: B1 VL

Target: T1, Human CD3eg linker
Experiment: Biacore SPR, vs template H183/L072

Compared with B1, B2 is higher in “fold change of affinity” value: 0 fold for the first, 0.7 fold for the second.

Compared with B3, B4 is lower in “fold change of affinity” value: 0.3 fold for the first, 0 fold for the second.

B5 and B6 are the same in “fold change of affinity” value: 0 fold for the first, 0 fold for the second.

B7 and B8 are the same in “fold change of affinity” value: 0 fold for the first, 0 fold for the second.

Compared with B9, B10 is lower in “fold change of affinity” value: 0.4 fold for the first, 0 fold for the second.

First: B11
Second: B12
The “fold change of affinity” value of the first is lower: 0 fold for the first, 0.1 fold for the second.

Going from B13 to B14, the “fold change of affinity” value rises from 0.5 fold to 1.1 fold.

B15 and B16 are the same in “fold change of affinity” value: 0 fold for the first, 0 fold for the second.

B17 and B18 are the same in “fold change of affinity” value: 0 fold for the first, 0 fold for the second.

B19 and B20 are the same in “fold change of affinity” value: 0 fold for the first, 0 fold for the second.

Going from B21 to B22, the “fold change of affinity” value falls from 0.3 fold to 0 fold.

B23 and B24 are the same in “fold change of affinity” value: 0 fold for the first, 0 fold for the second.

Going from B25 to B26, the “fold change of affinity” value falls from 0.8 fold to 0 fold.

B27 and B28 are the same in “fold change of affinity” value: 0 fold for the first, 0 fold for the second.

Going from B29 to B30, the “fold change of affinity” value falls from 1 fold to 0 fold.

Going from B31 to B32, the “fold change of affinity” value falls from 0.5 fold to 0 fold.

B33 and B34 are the same in “fold change of affinity” value: 0 fold for the first, 0 fold for the second.

Compared with B35, B36 is higher in “fold change of affinity” value: 0 fold for the first, 0.3 fold for the second.

B37 and B38 are the same in “fold change of affinity” value: 0 fold for the first, 0 fold for the second.

Compared with B39, B40 is lower in “fold change of affinity” value: 0.2 fold for the first, 0 fold for the second.

B41 and B42 are the same in “fold change of affinity” value: 0 fold for the first, 0 fold for the second.

B43 and B44 are the same in “fold change of affinity” value: 0 fold for the first, 0 fold for the second.

In the case of B45, the “fold change of affinity” value is reported as 0.6 fold.
